Source: PMC11844729

Tests used:
[1] = molecular target: mN2G^CH (N-terminal CH domains of nesprin-2G only) (mouse); assay: mass photometry
[2] = molecular target: F-actin (actin filaments from rabbit skeletal muscle actin) (rabbit) (UniProt P68135); assay: single-molecule TIRF microscopy

In the case of “mN2G^CH (N-terminal CH domains of nesprin-2G only) (domain or fragment)”, the stoichiometry N [1] is reported as 2 and the fold residence time on F-actin against utrophin [2] is reported as greater than 2 fold.
